The RNAGym collection of RNA variant scans (doi:10.7554/elife.90254)

B1: LINE1-full (parent)
chain: UACGUAGGUGGUUUUCCCCUGAUAGUGCUAAGGGGGCCUGGAAGUUUGGACUGGGCAGAGCUCAACACAGCGUGGCAAAGUGGCUGUGGCUAGACUGCCUCUCUGGAUUCCUCGUCACUCAGCAGGGCAUCUCUGAGAGAAAUGCC

Variants of: B1
Assay: self-cleavage, relative activity (ratio to wild type); higher = more cleavage; in vitro, sequencing; the parent is a self-cleaving ribozyme
With U12C G48A the self-cleavage was 0.97.
With U12G A24U the self-cleavage was 1.5.
Variant G10A U112C has a self-cleavage of 1.66.
U12G G21A gave a self-cleavage of 1.19.
With U13A A22G the self-cleavage was 1.05.
Variant U13A U52C has a self-cleavage of 1.78.
Work on U12G A124G yielded a self-cleavage of 0.84.
Work on U12C G35U yielded a self-cleavage of 1.53.
Work on G10A U143C yielded a self-cleavage of 1.4.
In the case of U12A U23C, the self-cleavage is reported as 1.47.
For U12A U23A, the self-cleavage was 1.58.
Work on G11A U112C yielded a self-cleavage of 1.37.
G11C A50G gave a self-cleavage of 0.71.
In the case of U12C C120A, the self-cleavage is reported as 1.47.
Work on U12C C120U yielded a self-cleavage of 1.43.
U12G U39A gave a self-cleavage of 1.05.
In the case of U12C U47C, the self-cleavage is reported as 1.42.
For U12C A94G, the self-cleavage was 0.37.
For G11A U96C, the self-cleavage was 0.08.
For U12A G21A, the self-cleavage was 1.08.
Variant U12A A57G has a self-cleavage of 1.23.
G10C G55A showed a self-cleavage of 0.6.
Variant U12A U102A has a self-cleavage of 1.79.
For U12A A124G, the self-cleavage was 0.87.
In the case of U12A A124U, the self-cleavage is reported as 1.23.
Variant U12C C17U has a self-cleavage of 1.3.
For U12A U45G, the self-cleavage was 1.33.
In the case of U12A U96C, the self-cleavage is reported as 0.28.
For G11U A59U, the self-cleavage was 1.02.
With G11A A64C the self-cleavage was 0.1.
U12A U62A gave a self-cleavage of 0.05.
Variant U12A U62C has a self-cleavage of 0.12.
In the case of U12A U62G, the self-cleavage is reported as 0.06.
Variant U13A A65U has a self-cleavage of 0.09.
Work on U13A A65G yielded a self-cleavage of 0.08.
For G11A U52C, the self-cleavage was 1.41.
U12C U102G gave a self-cleavage of 0.88.
In the case of U12C U102C, the self-cleavage is reported as 1.18.
U12C A78U gave a self-cleavage of 1.52.
For U12A U87A, the self-cleavage was 0.11.
For G10A U115C, the self-cleavage was 1.51.
G10A U115A gave a self-cleavage of 0.86.
U12A U20C gave a self-cleavage of 1.05.
U12G showed a self-cleavage of 1.13.
Work on U12A yielded a self-cleavage of 1.17.
Work on U12C yielded a self-cleavage of 1.29.
Work on U12G U134C yielded a self-cleavage of 1.19.
U13A A50U gave a self-cleavage of 0.58.
For U12C A136U, the self-cleavage was 1.43.
U12A A92G gave a self-cleavage of 0.
U12G A42G showed a self-cleavage of 1.42.
G10U U13C showed a self-cleavage of 0.83.
Work on G11A U15A yielded a self-cleavage of 0.99.
For G11A U109C, the self-cleavage was 1.4.
Work on U12A A43G yielded a self-cleavage of 0.85.
For U12G U109A, the self-cleavage was 1.47.
U13A U96A showed a self-cleavage of 0.05.
U13A A129U showed a self-cleavage of 0.81.
With U13A A129G the self-cleavage was 1.2.
In the case of U12G U100C, the self-cleavage is reported as 1.33.
For U13A U45C, the self-cleavage was 1.01.
Work on U12G A65G yielded a self-cleavage of 0.23.
Variant U13A U100A has a self-cleavage of 0.59.
U13A U100C gave a self-cleavage of 1.28.
For U12G C113A, the self-cleavage was 1.84.
Variant U13A A59G has a self-cleavage of 0.07.
With U12C A117G the self-cleavage was 1.84.
Work on U13A A43G yielded a self-cleavage of 0.96.
For U12G C90U, the self-cleavage was 0.08.
For U12C C116U, the self-cleavage was 0.77.
For U12A A94U, the self-cleavage was 0.51.
For U12C A69U, the self-cleavage was 0.09.
U12C A69G showed a self-cleavage of 0.64.
U12A U119C gave a self-cleavage of 1.54.
U12C U132A gave a self-cleavage of 1.31.
For U12C U132C, the self-cleavage was 1.13.
In the case of U13A A141G, the self-cleavage is reported as 1.26.
In the case of U12C U26A, the self-cleavage is reported as 1.03.
U12C U26C gave a self-cleavage of 1.39.
For U12G G139A, the self-cleavage was 0.95.
U13A A136U gave a self-cleavage of 1.22.
U13A A136G gave a self-cleavage of 1.38.
Variant G11A A124G has a self-cleavage of 0.85.
With G10A U130C the self-cleavage was 2.22.
Variant U12G A59G has a self-cleavage of 0.23.
For U13A C38A, the self-cleavage was 0.96.
Variant G11U A69G has a self-cleavage of 0.44.
U12G C99A showed a self-cleavage of 0.32.
Variant U12A U14A has a self-cleavage of 0.27.
Variant U13A U20C has a self-cleavage of 1.03.
With U12C C131U the self-cleavage was 1.29.
For U12C C38U, the self-cleavage was 1.16.
In the case of G11U C118U, the self-cleavage is reported as 0.91.
U12G U102C gave a self-cleavage of 0.59.
In the case of U13A A121G, the self-cleavage is reported as 0.88.
With U12G G32C the self-cleavage was 1.04.
For U12A A64G, the self-cleavage was 0.27.
Work on U12A A64U yielded a self-cleavage of 0.79.
Variant U12G A67G has a self-cleavage of 0.53.
Variant U12G A67U has a self-cleavage of 0.23.
In the case of U12C U91A, the self-cleavage is reported as 0.64.
Work on U12G A140G yielded a self-cleavage of 0.91.
Variant U12G A140C has a self-cleavage of 0.48.
Variant U13A C103A has a self-cleavage of 1.04.
With U12C U119A the self-cleavage was 1.78.
With U12A A107U the self-cleavage was 1.61.
Variant U13A A140U has a self-cleavage of 0.89.
G11A A24U showed a self-cleavage of 1.72.
U12C U20A gave a self-cleavage of 1.23.
For U12C U20G, the self-cleavage was 0.78.
For U12C U52C, the self-cleavage was 1.11.
In the case of U12C U52G, the self-cleavage is reported as 1.84.
U12C G75C showed a self-cleavage of 0.66.
For U12A C76U, the self-cleavage was 1.23.
Work on U13A U119A yielded a self-cleavage of 1.06.
Variant U12A A136G has a self-cleavage of 2.03.
Work on G11A U104C yielded a self-cleavage of 1.59.
In the case of U12A U13A, the self-cleavage is reported as 1.08.
In the case of U12C C19U, the self-cleavage is reported as 1.08.
In the case of U13A U102C, the self-cleavage is reported as 0.84.
In the case of U13A U102G, the self-cleavage is reported as 0.41.
U13A G35A gave a self-cleavage of 0.65.
Variant G10U C61U has a self-cleavage of 0.05.
Variant G11U A42G has a self-cleavage of 1.58.
With U13A A124G the self-cleavage was 0.97.
In the case of U13A A124U, the self-cleavage is reported as 0.98.
Variant U12A A22G has a self-cleavage of 1.14.
In the case of U12C G34C, the self-cleavage is reported as 1.34.
With U12C G72A the self-cleavage was 1.25.
In the case of G10U U62C, the self-cleavage is reported as 0.06.
In the case of U12G U87C, the self-cleavage is reported as 0.16.
With U12G U87A the self-cleavage was 0.09.
G10A U134C showed a self-cleavage of 1.5.
In the case of U13A G34A, the self-cleavage is reported as 1.13.
U12C A107G showed a self-cleavage of 0.99.
In the case of U13A U39C, the self-cleavage is reported as 0.61.
For U12C A129C, the self-cleavage was 1.99.
With U12C A129U the self-cleavage was 1.53.
Work on U13A A138G yielded a self-cleavage of 1.22.
Work on U13A C71A yielded a self-cleavage of 0.12.
In the case of U12C A79G, the self-cleavage is reported as 1.1.
In the case of U13A U109A, the self-cleavage is reported as 0.28.
U12C G36C gave a self-cleavage of 0.95.
For U13A U15A, the self-cleavage was 0.59.
With G11A A107G the self-cleavage was 1.65.
In the case of U12C U104C, the self-cleavage is reported as 1.56.
Variant U12C U104A has a self-cleavage of 1.3.
With U12G C145G the self-cleavage was 0.99.
Variant G11A G139A has a self-cleavage of 1.91.
Work on G11C A67G yielded a self-cleavage of 0.46.
In the case of U12C C146A, the self-cleavage is reported as 1.45.
For U12C C146U, the self-cleavage was 1.63.
For U12A C66U, the self-cleavage was 0.06.
For U12G G54A, the self-cleavage was 0.63.
With G10U U112C the self-cleavage was 0.93.
With U12C A57G the self-cleavage was 1.
U12G A79U gave a self-cleavage of 1.3.
With U12A G72A the self-cleavage was 1.41.
In the case of U12G G44U, the self-cleavage is reported as 1.1.
Variant G11A A69G has a self-cleavage of 0.48.
Variant G10U A42G has a self-cleavage of 0.
Work on U13A A57U yielded a self-cleavage of 0.06.
Variant U13A A57G has a self-cleavage of 0.51.
U12G U73A gave a self-cleavage of 1.68.
With U12G U73C the self-cleavage was 1.54.
In the case of U12G A141U, the self-cleavage is reported as 1.29.
Work on U12A U52G yielded a self-cleavage of 2.35.
